Data: the nanobody polyreactivity screen of Harvey et al. (2022)

Experiment: yeast display, Sf9 membrane polyspecificity reagent, FACS + sequencing; frameworks hold sequencing errors
Procedure, shortened: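 In a synthetic yeast display library (Saccharomyces cerevisiae BJ5465), nanobody expression was induced with galactose for 36–48 hours. FACS gates were set low and high (top ~1%) using anti-HA fluorescence for expression and streptavidin fluorescence for binding of the Sf9 membrane reagent. Each polyreactivity label is drawn from the gate of origin.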

Sequence	polyreactivity (PSR sort gate)
QVQLVESGGGLVQAGGSLRLSCAASGITFFLYGMGWYRQAPGKERELVAAISWSCASTYADSVKGRFTISRDNAKNTVYLQMNSLKPEDTAVYYCARDDNPIYSGVTYDYWGQGTQVTVSS	low polyreactivity
QDQLVESGGGLVQAGGSLRLSCAASGSTFRHNAMGWYRQAPGKERELVATIRTSGGTTYYADSVKGRFTISRDNAKNTVYLHMNSLKPEDTAVYYCAAVSYLFLYQGYPIAYPMYYWGQGTQVTLSS	low polyreactivity
QVQLVESGGGLVQAGGSLRLSCAASGSTIYYAMGWYRQAPGKERELVAAISYSGGSTRYADSVKGRFTISRDNAKNTVYLEMNFLKPEDTSVYYCAAPRKYYYGESPLDYWGQGTQVTVSS	high polyreactivity
QVQLVESGGGLVQAGGSLRLSCAASGLIFSPYAMGWYRQAPGKVREFVAAITSRGGTYYADSVKGRFTISRDNAKNTVYLQMNSLKPEDTAVYYCAARNNRYPLYNYWGQGTQVTVSS	low polyreactivity
QVQLVESVGGLVQAGGSLRISCAASGRIFYNYAMGRYRQAPGKERELVAAISGSGGSTYYADSVKGRFTISRDIAKNTVYLQMNSLIPEDTAVFYCSTSGPQYYSRNFDYWGQGTQVTVSS	low polyreactivity
QVQLVESGGGLVQAGGSLRLSCAASGFTFYYYAMGWYRQAPGKEREMVAAISGGGGSTYYADSVKGRFTISRDNAKNTVYLQMNSLKPEDTAVFYCAAEYRGYPEDEYWGQGTQVTVSS	high polyreactivity
QVQLVESGGGLVQAGGSLRLSCAASGRTFQTNAMGWYRQAPGKERELVAAISWSGGRTYYADSVKGRFTISRDNAKNTVYLQMNSLKPEDTAVYYCAARQWYRYKVRFDYWGQGTLVTVSS	high polyreactivity
QVQLVESGGALVQAGGSLRLSCAASGIIFWLYDMGWSRQAPGKERELVAVMTWSGDSTYADSVKGRFTISRDNAKNTVYLQMNSLKPEDNAVYYCAAREYYRKPYDHWGQGTQVTVSS	high polyreactivity
QVQLVESGGGLVQAGGSLRLSCAASGSTFYYNAMGWYRQAPGKETELVADISWRGGITYYADSVKGRFTISRDNAKNTVYLQMNSLKPEDTAVYYCNADAESFDDGYWGQGTQVTVSS	low polyreactivity
QVQLVESGGGLVQAGGSLRLSCAASGRIWLYAMGWYRQAPGKERELVAAISWTDGRTRYADSVKGRFTISRDNAKNTVYLQMNRLKPEDTAVYYCAPVVDRGYRRVKYYYWGQGTQVSVSS	high polyreactivity
QVQLQESGGGLVQAGGSLRLSCAASGNIYEADIMGWYRQAPGKERELVTSITDGGSTNYADSVKGRFTISRDNAKNTVYLQMNSLKPEDTAVYYCAAIAYPDIPTSFDYNSDYSYWGQGTQVTVSS	low polyreactivity
QVQLVESGGGLVQAGGSLRLSCAASGFTFGSYAMGWYRQAPGKEREFVAAIRRSGSSTYYADSVKGRFTISRDNAKNTVYLQMTSLKPEDTAVYYCAADVYRRLRRYRYYYWGQGTQVTVSS	low polyreactivity
QVQIVESGGGLVQAGGSLRLSCAASGITFDTYVMGWYRQAPGKERELVATISESVGNTYYADSVKGRFTISRDNEKNTVYLQMNILKPEDTAVDYCYTSRYYTIYTYYYWGQGTQVTVSS	low polyreactivity
QVQLVESGGGLVQAGGSLRLSCAASGRIFTNYAMGWYRQAPGKERELVAAINWDGGSTYYADSVKGRFTISRDNAKNTVYLQMNSLKPVDTAVYYCAAQGGLSEYDYWGQGTQVTVSS	low polyreactivity
QVQLVESGGGLVQAGGSLRLSCAASGRNFYSYSMGWYRQEPGKERELVATITSNDGGTDYADSVKGRFTISRDNAKNTVYLQMNSLKPEDTAVYYCNAEDVLPEVGNRYNYWGQGTQVTVSS	low polyreactivity
QVQLVESGGGLVQAGGSLRLSCAASGRTFYIYAMGWYRQAPGTERELVAAITYGGGRTFYADSVKGRFTISRDKAKNTVYLQMNSLKPEDTAVYYCAADGRTLGRRYYYWGLGTQVTVSS	high polyreactivity
QVQLVDSGGGLVQAGGTLRLSCAASGFTFIYYAMGWYRQAPGKERELVAAISASGGSTYYADSVKGRFTISRDNAKNTVYLQMNSLKPEDTAVYYCNKYWRKPPAGGYYYWGQGTQVTVSS	high polyreactivity
QVQLVESRAGLVQAGGSLRLSCAASGRTSWVYAMGWYRHAPGKDRELVAAIRWRGSSTYYADSGKGRFTISRDNAKNTVYLQMNSLKPEVTAVYYCAAAFSFAQSFDSWGQGTQVTVSS	high polyreactivity
QVQLVESGGGLVQAGGSLRLSCAASGNIFAIYARGWYRQAPGKEREFVAAIDWSVASTYYADSVKGRFTISRDNEKNTVYLQMNSLTPEDTAVYSSAAELYGLKYGYYLSYDYWGQGTQVTVSS	high polyreactivity
QVQLVESGGGLVQAGGSLLLSCAASGLTFRRYNMGWYRQAPGKERELVAAISYSGGSTYYADSVKGRFTISRDNAKNTVYLQMNSLKPEDTAVYYCNDRYARVKQYGYWGQGTQVTVSS	low polyreactivity
QVQLVESGGGLVQAGGSLRLSCAASGSTFSPNAMGWYRQAPGKERELVAAITWSGGSNTYADSVKGRFTISRDNAKNTVYLQMNSLKPEDTAVYYCAADTKYDNDYWGQGTQVTVSS	low polyreactivity
QVQLVESGGGLDQSGGSLRISCAASGSTFYRNAMGWYRQAPGKEREFVAAITTDDSTYYADSVKGRFTISRDNAKNTVYLQMNSLKPEDTAVYYCAAGLEGKATWAAVGGYDYWGQGTQVTVSS	low polyreactivity

Sequence	polyreactivity (PSR sort gate)
QVQLVESGGGLVQAGGSLRLSCAASGITFPRYVMGWYRQAPGKEREFVAAINYSGGRTYYADSVKGRFTISRDNAKNTVYLQMNSLKPEDTAVYYCAVDLHVWPFWYDYWGQGTQVTVSS	high polyreactivity
QVQLVESGGGLVQAGRSLRLSCAASGFTFGYYAMGWYRQPPGKERELVAAISWNGGRTYYADSVKGRFTISRDNAKNTVYLQMISLKPEDTAVYYCAADYRFYSPTQYTYDYWGQGTQVTVSS	high polyreactivity
QVQLVESGGGLVQAGGSLRLSCAASGRIFGYYAMGWYRQAPGKERELVAAITGSGGRTYYADSVKGRFTISRDNAKNTVYLQMNSLKPEDTAVYYCARQQYRWERVYGYGYCGQGTQVTVSS	high polyreactivity
QVQLVESGGGLVQAGGSLRLSCAASGRIFRLYVMGWYRQAPGKERELVAAITRGGGTYYADSVKGRFTISRDNAKNTVYLQMNSLKPEDTAVYYCAVGTYTIYSGTLYDYKYYWGQGTQVTVSS	low polyreactivity
QVQLVESGGGLVQAGGSLRLSCAASGITFGYYAMGWYRQAPGKERENVAAITRRGGSTYYADSVKGRFTISRDNAKNTVYLQMNSLKPEDTAVYYCAADSYRYWFIEDNYWGQGTQVTVSS	high polyreactivity
HDQHVESGGGLVQAGGSLRLSCAASGRIYGSTMGWYRQAPGKERELVAAITRNGGSTYYADSVKGRFTISRDNSKNTVYLQMNSVKPEDTEVYYCAARNAFGTYYYWGQGTQVNVSS	high polyreactivity
QVQLVESGGGLVQAGGSLRLSCAASGSTFSSNAMGWYRQAPGKERELVAAIDRGGSTYYADSVKGRFTISRDNAKNTVYLQMNSLKPEDNAVYYCNAERETYDYWGQGTQVTVSS	low polyreactivity
QVQLVESGGGLVQAGGSLRLSCAASGRIYWYYAMGWYRQAPGKERELVATISYGGGNTYYADTVKVRFTISRDNAKNTVYLQMNSLNPEDTAVYYCARVPYAYLPYKPFQQYSYDYWGQGTQVTVSS	high polyreactivity
QVQLVESGGGLVQAGGSLRLSCAASGRTFVGYAMGWYRQAPGKERELVAAISRRGGSTYYADSVKGRFTISRDYAKKTVYLQMNSLKPEDTAVYYCARDYGGVGAPGSAGAYDYWGQGTQVTVSS	high polyreactivity
QVNLVDSGGGLVQAGGSHRLSCAASGSIVSGNAMGWYRQEPGKERELVATISWSGGSTNYADSVKGRFTISRDNAKNTVYLQMNSLKPEDTAVYYCNAYVAYWGWVYRVDYWGQGTQVTVSS	low polyreactivity
QVQLVESGGGLVQAGGSLRLSCAASGNIFRGYTMGWSRQAPGKERELVAAISYSGGSTYADSVKGRFTISRDNAKNTVYLQMNSLKPEDTAVYYCNTDTSVDVRFDYWGQGTQVTVSS	low polyreactivity
QVQLVESGGGLVQAGGSLRLSCAASGLILSDYAMGWYRQAPGKERELVATITSVGTTKYADSVKGRFTISRDNAKNTVYLQMNSLKPEDTAVYYCAVEWYQGTTYSISYLYDYWGQGTQVTVSS	low polyreactivity
QDQLVESGGGLVQAGCSLRLSCAASGLIFNYKVMGWYRHAPGKERELVAAISRGGSTYYADSVKGRFTFSRDNAKNTVYLQMNSLKPEDTAVYYCAARYRSRYDYWGQGTQVTVSS	high polyreactivity
QVQLVESGGGLVQAGGSLRLSCAASGSTFGIYAMGWYRQAPGKERELVAAISWRGGRTYYADSVKGRFTISRDNAKNTVYLQMNSLKPEDTAVYYCAADYRYLWEGYDYWGQGTQVTVSS	low polyreactivity
QVQLVESGGGLVHAGGSLRLSCAASGRTFASYAIGWYRQAPGKERELVARISKSGGSTYYADSVKGRFTISRDNAKNTVYLQMNSLKPEDTAVYYCAATRYPYLYRSEVGSDYWGQGTQVTVSS	low polyreactivity
QVQLVESGGGLVQAGGSLRLSCAASGSTFYYYAMGWSRQAPGKERELVAGITWSGGRTYYADSVKGRFTISRDNAKNTVYLQMNSLKTEDTAVYYCAASLYTWTYQPVYYRDGYWGQGTQVTVSS	low polyreactivity
QVQLVESGGGLVQAGGSLSLICAASGSTFSQYFMGLYRQAPGKDRELVAGISSRGTSTYYADSVKGRFTISRDNAQNTFYLQMNSLKPEDTAVFYCNRGKLYNTYDYWGQGTQVNVSS	low polyreactivity
QVQLVDSGGGLVQAGGTLRLSCAASGRTIRYNAMAWYRQAPGKERELVAAITGSGGSTYYADSVKGRFTISRDNAKNTVYLQMNSLKPEDTAVYYCARDGYLVYYYDWSYPYDSWGQGTQVTVSS	low polyreactivity
QVQLVESGGGLVQAGGSLRLSCAASGFTFRTYAMGWYRQAPGKERELVAGISQGGGSTYYADSVKGRFTISRDNAKNTVYLQMKSLKTEVTAVYYCAKARNSNARFGYWGQGTQVTVSS	high polyreactivity
QVQLVESGGGLVQAGGSLRLSCAASGRIFTGNAMGWYRQAPGKERELVAAISRRGTRTYYADSVKGRFTISRDNAKNTVYLQMNSLKPEDTAVYYCATVLYKAYNDYGYWGQGTQVTVSS	high polyreactivity
QVQLQESGGGLVQAGGSLRLSCAASGSIFYWPWMGWYRQAPGREREFVATITTGSNTYYADIMKGHLTISRDNARNTVYLQMKSLKPEDTAVYYCAVVGDGEIEHRYWGQGTQVTVSS	high polyreactivity
